Substitutions are numbered along the chain they refer to.
T1: human IL-2Rα (human, UniProt P01589 22-240, limits assumed)
T1 construct: recombinant protein; also called hu IL-2R; human IL-2Ra
T1 sequence: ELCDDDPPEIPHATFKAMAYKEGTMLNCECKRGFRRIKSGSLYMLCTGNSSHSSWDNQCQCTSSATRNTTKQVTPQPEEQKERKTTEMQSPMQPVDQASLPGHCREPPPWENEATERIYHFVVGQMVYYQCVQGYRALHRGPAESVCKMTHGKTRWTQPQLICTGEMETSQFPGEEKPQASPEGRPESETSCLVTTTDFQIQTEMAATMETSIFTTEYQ

B1: FJ1427_P035MP05D06 (VHH)
VHH: QVQLVESGGGLVQAGDSLRLSCAASGFNFGWHAMGWFRQAPGKEREFVATITWTGRDTYYADSVRGRFTISKDNAKDTLFLQMNSLRPDDTGVYYCAKARERATWAYSEDDCDYWGQGTQVTVSS
notes: periplasmic extract; also called clone nr
B2: 13-MP05E12 (VHH)
VHH: B1 VHH with V5Q
notes: periplasmic extract; The row prints V ID 13-MP05E12 beside Clone ID ...MP05H07; clone nr; also called FJ1427_P035MP05H07
B3: FJ1427_P035MP05H05 (VHH)
VHH: B1 VHH with D77N, N84S
notes: as for B1
B4: FJ1427_P035MP05F06 (VHH)
VHH: B1 VHH with Q1E
notes: periplasmic extract; also called clone nr; 430
B5: FJ1427_P035MP01E12 (VHH)
VHH: QVQLVESGGGLVQAGGSLRLSCAASGITFNDHTMAWFRQAPGKEREFVAARDWSDIITRYASSVKGRFTISRDNAGNTGFLQMNSLRPEDTAVYYCAAREGGVVAGVRSGAPYDYWGQGTQVTVSS
notes: periplasmic extract; also called clone nr; 93
B6: FJ1427_P035MP01F12 (VHH)
VHH: B5 VHH with Q1E, R19G, S126P
notes: periplasmic extract; also called clone nr; 94
B7: FJ1427_P035MP01G11 (VHH)
VHH: B5 VHH with Q118R
notes: periplasmic extract; also called clone nr; 87
B8: FJ1427_P035MP05B03 (VHH)
VHH: B5 VHH with V5Q, A14P
notes: as for B1
B9: FJ1427_P035MP05H01 (VHH)
VHH: B5 VHH with Q1E
notes: as for B1
B10: FJ1427_P035MP05H02 (VHH)
VHH: B5 VHH with Q1E, S62G
notes: periplasmic extract; also called clone nr; 400
B11: FJ1427_P035MP01F02 (VHH)
VHH: QVQLQESGGGLVQAGGSLRLSCAASGRTFRTHNMGWFRRAPGKEREFVAAISWNIDNKLYADSVKGRSTISRDNGGNMVFLQMNSLKPEDTAVYYCAADKIPLSSDVAATATEYDDWGQGTQVTVSS
notes: periplasmic extract; also called clone nr; 14
B12: 5-MP01F05 (VHH)
VHH: EVQLVESGGGLVQAGGSLRLSCAASIRAFTTWSMAWFRQAPGKEREYVARINVSGSVTYYADFVKGRFTISRDNAKKTMYLEMNNLKPEDTALYYCAADRTGVGTNDYNYWGQGTQVTVSS
notes: periplasmic extract; also called FJ1427_P035MP01F05
B13: 6-MP01G05 (VHH)
VHH: QVQLQESGGGLVQAGGSLRLSCAASGRTFSSYAMGWFRQAPGKEREFVAVISWNVDNTEYTDSVKGRFTISRDNDKNMVYLQMNSLKPEDTAVYYCAADSIPLSSDMSPTATEYGYWGQGTQVTVSS
notes: periplasmic extract; also called FJ1427_P035MP01G05
B14: FJ1427_P035MP01A11 (VHH)
VHH: QVQLVESGGGLVQPGGSLRLSCAASGRTFETHNMGWFRRAPGKEREFVAVISWNVDSTEYTDSVKGRFTISRDNDKNMVYLQMNSLKPEDTGVYYCAADNIPLSSDMSPTAAEYGYWGQGTQVTVSS
notes: periplasmic extract; also called clone nr; 81
B15: 3-MP01E03 (VHH)
VHH: QVQLVESGGGLVQAGGSLRLSCTASGRTLSSYSMAWFRQAADKGREFVTAISSSGVVTHVLDSVKGRFTISRDNAKNTVYLQMNSLQPEDTALYFCAGTASSYSTYEANYNYWGQGTLVTVSS
notes: periplasmic extract; also called FJ1427_P035MP01E03
B16: FJ1427_P035MP01H07 (VHH)
VHH: B15 VHH with Q1E, T23A, S31G, S33A, A40P, A41P, V56I, G98A, T105D
notes: periplasmic extract; also called clone nr; 56
B17: 10-MP05F03 (VHH)
VHH: QVQLVESGGGLVQAGGSLRLSCAASGIPFDNYAMGWFRQAPGKEREFVAARDLEGIITRYGDSVKGRFTISRGNAKNTVFLQMNSLKPEDTAVYYCAARDGGVVAGSRSSAQYNYWGQGTQVTVSS
notes: periplasmic extract; also called FJ1427_P035MP05F03
B18: FJ1427_P035MP01F07 (VHH)
VHH: QVQLVESGGGLVQAGGSLRLSCAATGLTFRQHNMGWFRRAPGKEREFVAAISWNVGSTYFADSVKGRFTISRDNGKNMVYLQMNSLKPEDTAVYYCAADNIPLASDMRATATAYGYWGQGTQVTVSS
notes: periplasmic extract; also called clone nr; 54
B19: FJ1427_P035MP05E11 (VHH)
VHH: EVQLVESGGGSVQAGGSLRLSCAASGRTLYSSYGMAWFRQAPGKERDFVGSISRYGTYTSYADSVKDRFTISRDNAKSTVYLQMNNTKPEDTAVYYCAAYTYSGSFYSTVKTHRDEYQYWGQGTQVTVSS
notes: as for B1
B20: FJ1427_P035MP05A07 (VHH)
VHH: B19 VHH with E1Q, S11L, V12A, G16A, D67G
notes: as for B1
B21: FJ1427_P035MP01E10 (VHH)
VHH: QVQLVESGGGLVQAGDSLRLSCAASGRSFRNYILAWYRQAPGKEREFLAAISWLDGTLYADSVEDRFTISRDNPKNTVHLQMDSLKPEDTAVYYCAADRGPVRPVLAPDVDYWGQGTQVTVSS
notes: periplasmic extract; also called clone nr; 77
B22: FJ1427_P035MP01E07 (VHH)
VHH: B21 VHH with V5Q, D55E
notes: periplasmic extract; also called clone nr; 53
B23: FJ1427_P035MP01D11 (VHH)
VHH: B21 VHH with V2L, L34M
notes: periplasmic extract; also called clone nr; 84
B24: FJ1427_P035MP01E04 (VHH)
VHH: B21 VHH with A24V, L58F, D61N, D65G, S84G, S122A
notes: periplasmic extract; also called clone nr; 29
B25: FJ1427_P035MP01B12 (VHH)
VHH: B21 VHH with V5Q, L58F, D61N, D65G, S84G, S122A
notes: periplasmic extract; also called clone nr; 90
B26: FJ1427_P035MP01E02 (VHH)
VHH: B21 VHH with S84N
notes: periplasmic extract; also called clone nr; 13
B27: FJ1427_P035MP01F11 (VHH)
VHH: B21 VHH with V5Q
notes: periplasmic extract; also called clone nr; 86
B28: FJ1427_P035MP01A01 (VHH)
VHH: B21 VHH with Q1E, S84N, T120S
notes: as for B1
B29: FJ1427_P035MP01G07 (VHH)
VHH: B21 VHH with A14T, D65G
notes: periplasmic extract; also called clone nr; 55
B30: 07-MP01G08 (VHH)
VHH: EVQLVESGGGLVQAGGSLRLSCAASGRAFSMYNMGWFRQAPGKEREFVAATGWSGANTPYADSVKGRFTISRDNTQNTVYLQMNSLKPEDTATYYCAADSIRLRSDVTRIPLEYDYWGQGTQVTVSS
notes: periplasmic extract; also called FJ1427_P035MP01G08
B31: FJ1427_P035MP01F08 (VHH)
VHH: EVQLVESGGGWVQPGDSLRLSCAASGRSFRNYVMGWFRQVPGKEREFLSVITSLGGTLDADSVADRFTISRDNSKNTVYLQMDSLKPEDTAVYYCAADRGPARYISASDVDYWGQGTQVTVSS
notes: periplasmic extract; also called clone nr; 62
B32: FJ1427_P035MP01B01 (VHH)
VHH: B31 VHH with P14A, S28T, L58V, D59Y, D65N, S74P, N76D, V121A
notes: as for B1
B33: FJ1427_P035MP01D04 (VHH)
VHH: B31 VHH with E1Q, S53W
notes: periplasmic extract; also called clone nr; 28
B34: FJ1427_P035MP01F06 (VHH)
VHH: QLQLVESGGGLVQAGGSLRLSCAASGGAFSRYAVGWFRMAPGKGREFVSAIDLSGTNTHVLDSVKGRFTISRDNDKNTAYLQMDKLQPEDTAVYWCAATSSSYSDYEANYNIWGQGTQVTVSS
notes: periplasmic extract; also called clone nr; 46
B35: FJ1427_P035MP01H02 (VHH)
VHH: B34 VHH with G16D, G27R, D52N, L53S, T56A, H59Y, K85S, D105T, I112V
notes: periplasmic extract; also called clone nr; 16
B36: FJ1427_P035MP01G10 (VHH)
VHH: B34 VHH with Q1E, L2V
notes: periplasmic extract; also called clone nr; 79

The binders below were run against T1, human IL-2Rα (assay: ELISA, P.E. on coated antigen).
Description: In a binding ELISA, human or mouse IL-2Rα, IL-2Rβ and IL-2Rγ proteins were coated directly on maxisorp microtiter plates overnight at 4° C. Free binding sites were blocked using 4% Marvel in PBS for 1 hour. Next, 1:5 dilution of P.E. in 1% Marvel/PBS were added to wells and incubated for 1 hour. […] Binding specificity was determined based on O.D. at 450 nm values compared to negative controls.

Binder	OD (PE binding ELISA)
B1	2.51 OD450 nm
B2	2.34 OD450 nm
B3	2.51 OD450 nm
B4	2.51 OD450 nm
B5	2.69 OD450 nm
B6	2.67 OD450 nm
B7	2.73 OD450 nm
B8	2.42 OD450 nm
B9	2.62 OD450 nm
B10	2.29 OD450 nm
B11	2.5 OD450 nm
B12	2.62 OD450 nm
B13	1.79 OD450 nm
B14	2.81 OD450 nm
B15	2.54 OD450 nm
B16	2.14 OD450 nm
B17	2.46 OD450 nm
B18	2.76 OD450 nm

Binder	OD (PE binding ELISA)
B19	2.35 OD450 nm
B20	2.43 OD450 nm
B21	2.78 OD450 nm
B22	2.73 OD450 nm
B23	3.21 OD450 nm
B24	2.61 OD450 nm
B25	3.05 OD450 nm
B26	2.86 OD450 nm
B27	2.74 OD450 nm
B28	2.85 OD450 nm
B29	2.75 OD450 nm
B30	2.57 OD450 nm
B31	2.71 OD450 nm
B32	2.78 OD450 nm
B33	2.76 OD450 nm
B34	2.71 OD450 nm
B35	2.35 OD450 nm
B36	2.75 OD450 nm

These binders were tested against T1, human IL-2Rα (assay: SPR, P.E. on immobilised antigen).
Description: SPR was performed to determine dissociation rates using Biacore 3000 instrument (GE Healthcare). Briefly, human and mouse IL-2R proteins were immobilized on carboxylmethyl dextran sensor chip (CM5) at approximately 2500 RUs using amine coupling in acetate buffer (GE Healthcare). The VHH-containing P.E. were loaded with a flow rate of 30 uL/min and the off-rates were measured over a 120s period.

Binder	koff
B1	0.000677 s⁻¹
B2	0.000742 s⁻¹
B3	0.000591 s⁻¹
B4	0.00067 s⁻¹
B5	0.000141 s⁻¹
B6	0.00011 s⁻¹
B7	0.000123 s⁻¹
B8	0.000131 s⁻¹
B9	0.000141 s⁻¹
B10	0.000141 s⁻¹
B11	0.00391 s⁻¹
B12	0.00042 s⁻¹
B13	0.0206 s⁻¹
B14	0.000778 s⁻¹
B15	0.000799 s⁻¹
B16	0.00112 s⁻¹
B17	0.000639 s⁻¹
B18	0.00067 s⁻¹

Binder	koff
B19	0.001 s⁻¹
B20	0.00104 s⁻¹
B21	0.00119 s⁻¹
B22	0.00159 s⁻¹
B23	0.0027 s⁻¹
B24	0.00235 s⁻¹
B25	0.00144 s⁻¹
B26	0.00128 s⁻¹
B27	0.00118 s⁻¹
B28	0.00112 s⁻¹
B29	0.0015 s⁻¹
B30	0.00184 s⁻¹
B31	0.00162 s⁻¹
B32	0.00178 s⁻¹
B33	0.00295 s⁻¹
B34	0.000526 s⁻¹
B35	0.00115 s⁻¹
B36	0.000443 s⁻¹

Source: patent publication US20240409645A1 (DUALYX, published 2024)
